The values below are quoted from earlier work in PMC6368066 (Neuromuscular disorders : NMD, 2018).

Where no end group is shown, it is not given here.

One data set concerns the target Piezo 1 (UniProt E2JF22). The data set is described as follows: outside-out patch clamp.
The subject of another data set is mdx muscles. The settings on record: mdx muscles in vitro, 10 μM.
For a further data set, the system named is dystrophin. Conditions: phase III trials, over 180 weeks.

Sequence of UniProt E2JF22 (E2JF22 whole entry): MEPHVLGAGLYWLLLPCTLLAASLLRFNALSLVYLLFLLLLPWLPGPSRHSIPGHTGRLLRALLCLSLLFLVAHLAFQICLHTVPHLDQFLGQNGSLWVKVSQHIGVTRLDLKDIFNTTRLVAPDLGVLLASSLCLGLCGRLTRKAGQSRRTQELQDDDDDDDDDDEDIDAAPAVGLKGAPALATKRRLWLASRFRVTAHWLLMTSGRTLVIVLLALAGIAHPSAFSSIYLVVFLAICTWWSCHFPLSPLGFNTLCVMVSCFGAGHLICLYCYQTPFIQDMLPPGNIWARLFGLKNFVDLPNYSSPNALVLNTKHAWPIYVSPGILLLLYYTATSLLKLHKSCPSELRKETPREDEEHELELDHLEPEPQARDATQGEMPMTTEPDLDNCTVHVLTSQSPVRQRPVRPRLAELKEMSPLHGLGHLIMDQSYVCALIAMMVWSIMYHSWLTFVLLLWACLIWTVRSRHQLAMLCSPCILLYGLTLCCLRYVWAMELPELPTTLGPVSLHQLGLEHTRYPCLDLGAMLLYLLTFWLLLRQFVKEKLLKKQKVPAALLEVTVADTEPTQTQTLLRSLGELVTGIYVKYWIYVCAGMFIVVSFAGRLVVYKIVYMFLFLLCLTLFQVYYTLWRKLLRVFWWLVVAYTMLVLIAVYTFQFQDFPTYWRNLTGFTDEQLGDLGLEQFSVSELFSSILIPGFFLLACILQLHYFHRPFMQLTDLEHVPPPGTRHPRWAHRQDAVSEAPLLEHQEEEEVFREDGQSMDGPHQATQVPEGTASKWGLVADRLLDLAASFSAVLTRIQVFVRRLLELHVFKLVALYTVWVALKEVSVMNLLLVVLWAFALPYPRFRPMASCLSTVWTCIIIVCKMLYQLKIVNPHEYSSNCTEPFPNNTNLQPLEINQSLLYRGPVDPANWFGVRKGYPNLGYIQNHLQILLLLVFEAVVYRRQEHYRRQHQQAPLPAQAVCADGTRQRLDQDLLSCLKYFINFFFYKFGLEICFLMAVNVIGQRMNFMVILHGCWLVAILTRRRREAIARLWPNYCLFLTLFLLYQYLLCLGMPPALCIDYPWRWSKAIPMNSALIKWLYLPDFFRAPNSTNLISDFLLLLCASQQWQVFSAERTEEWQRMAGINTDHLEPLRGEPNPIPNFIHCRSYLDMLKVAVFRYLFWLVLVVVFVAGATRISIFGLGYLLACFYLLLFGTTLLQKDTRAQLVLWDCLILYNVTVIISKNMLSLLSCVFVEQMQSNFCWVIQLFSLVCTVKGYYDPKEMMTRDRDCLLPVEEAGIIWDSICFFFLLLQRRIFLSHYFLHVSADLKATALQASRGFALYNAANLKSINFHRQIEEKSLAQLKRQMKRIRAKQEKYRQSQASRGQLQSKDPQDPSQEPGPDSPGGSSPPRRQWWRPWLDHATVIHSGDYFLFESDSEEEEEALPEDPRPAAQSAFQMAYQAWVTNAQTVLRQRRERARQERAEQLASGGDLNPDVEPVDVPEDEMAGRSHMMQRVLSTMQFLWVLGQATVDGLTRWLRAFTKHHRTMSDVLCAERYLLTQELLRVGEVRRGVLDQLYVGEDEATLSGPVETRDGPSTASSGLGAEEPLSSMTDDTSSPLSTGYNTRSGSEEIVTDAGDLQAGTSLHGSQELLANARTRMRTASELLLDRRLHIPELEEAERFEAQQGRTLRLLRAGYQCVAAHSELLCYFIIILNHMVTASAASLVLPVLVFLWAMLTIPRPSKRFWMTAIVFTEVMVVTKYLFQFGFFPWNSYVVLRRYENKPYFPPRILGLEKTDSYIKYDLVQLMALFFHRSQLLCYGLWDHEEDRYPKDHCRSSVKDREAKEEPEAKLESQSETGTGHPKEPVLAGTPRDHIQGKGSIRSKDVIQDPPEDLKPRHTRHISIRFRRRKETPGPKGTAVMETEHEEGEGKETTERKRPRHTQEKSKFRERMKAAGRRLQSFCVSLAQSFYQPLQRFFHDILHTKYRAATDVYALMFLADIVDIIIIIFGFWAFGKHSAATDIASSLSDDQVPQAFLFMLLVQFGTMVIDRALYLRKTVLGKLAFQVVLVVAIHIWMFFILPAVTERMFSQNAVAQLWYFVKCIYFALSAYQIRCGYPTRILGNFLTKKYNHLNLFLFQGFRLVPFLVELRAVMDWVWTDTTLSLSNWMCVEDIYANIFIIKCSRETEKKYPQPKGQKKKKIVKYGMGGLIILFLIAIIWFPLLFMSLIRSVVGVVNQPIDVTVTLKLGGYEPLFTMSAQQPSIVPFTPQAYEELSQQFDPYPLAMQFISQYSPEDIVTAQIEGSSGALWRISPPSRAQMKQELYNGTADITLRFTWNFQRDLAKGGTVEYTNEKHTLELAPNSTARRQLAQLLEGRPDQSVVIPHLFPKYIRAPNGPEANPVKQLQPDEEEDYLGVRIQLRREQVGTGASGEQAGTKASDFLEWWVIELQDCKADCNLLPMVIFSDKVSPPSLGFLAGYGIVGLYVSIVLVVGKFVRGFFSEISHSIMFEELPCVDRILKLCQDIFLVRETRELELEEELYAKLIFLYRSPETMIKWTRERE

On to GsMTx4 (from UniProt Q7YT39), for which the Kd with Piezo 1 was 500 nM.
Take “GsMTx4: 34 amino acid peptide that selectively inhibits nonselective cationic MSCs (GCLEFWWKCNPNDDKCCRPKLKCSKLFKLCNFSF; ends and bridges not checked; cysteine pairing not given here; UniProt Q7YT39 47-80, looked up)”: the contraction-induced dye accumulation entry in the data set with mdx muscles is “reduced contraction-induced dye accumulation”.
For eteplirsen, the dystrophin levels in the data set with dystrophin was ~ 1 % of normal dystrophin levels.
glucagon: the serum half-life was 1 to 2 min.
